Data taken from the RNAGym collection of RNA variant scans (doi:10.1073/pnas.2313332121).

B1: TPR t1 (parent)
chain: GACCAAUCUGCCCUCAGAGCUCGAGAACAUCUUCGGAUGCAGAGGAGGCAGGCUUCGGUGGCGCGAUAGCGCCAACGUCCUCAACCUCCAAUGCAUCCCACCACAUGAUGAUGCCUGAAGAGCCUUGGUUUUUUG

Variants of: B1
Test: polymerase ribozyme fitness, log enrichment relative to wild type (log ratio); higher = more active; in vitro selection for triplet polymerase activity
Procedure, shortened: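 In triplicate, a single round of in vitro selection was run on each mutant library, PCR-built and transcribed, covering one subunit of a heterodimeric triplet polymerase ribozyme. Frozen incubation at −7 °C followed annealing with a biotinylated primer, partner subunit and triplets, and extended constructs were then gel-excised, streptavidin-captured and taken through RT-PCR. Fitness is the logarithm of genotype enrichment over wild-type enrichment, from inverse-variance-weighted replicate averages of Illumina-sequenced inputs and outputs. […] only genotypes with ≥10 input reads and ≥1 read per output were kept.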

Question: For G42A G48A C80A U96A, which “polymerase ribozyme fitness (log ratio)” value is on record?
Answer: -6.92

Question: Which “polymerase ribozyme fitness (log ratio)” value does the source give for C13A A43G G110A C124G G128A here?
Answer: -6.67

Question: With C31A U54C G60U A121C as the variant, how does the “polymerase ribozyme fitness (log ratio)” value read?
Answer: -5.42

Question: With G44A C70U A83G U96C G110U as the variant, how does the “polymerase ribozyme fitness (log ratio)” value read?
Answer: -6.41

Question: For C12A C34U, which “polymerase ribozyme fitness (log ratio)” value is on record?
Answer: -4.77

Question: For C8U A46G C56G, which “polymerase ribozyme fitness (log ratio)” value is on record?
Answer: -0.511

Question: Which “polymerase ribozyme fitness (log ratio)” value does the source give for C12G G35A A37U G63C here?
Answer: -5.96

Question: For C56G C89G G122A U129A, which “polymerase ribozyme fitness (log ratio)” value is on record?
Answer: -4.09

Question: With U7G A16C U55G C88U A95U as the variant, how does the “polymerase ribozyme fitness (log ratio)” value read?
Answer: -1.79

Question: With C40U U112A as the variant, how does the “polymerase ribozyme fitness (log ratio)” value read?
Answer: 0.76

Question: Which “polymerase ribozyme fitness (log ratio)” value does the source give for C12U A37C G45A G63U here?
Answer: -1.7

Question: With C4U A50C A74U C79G G117A as the variant, how does the “polymerase ribozyme fitness (log ratio)” value read?
Answer: -4.91

Question: With C34A A50U G71C C123G as the variant, how does the “polymerase ribozyme fitness (log ratio)” value read?
Answer: -4.86

Question: With A5U C11U as the variant, how does the “polymerase ribozyme fitness (log ratio)” value read?
Answer: -1.46

Question: For G71U C72G C123A, which “polymerase ribozyme fitness (log ratio)” value is on record?
Answer: -2.68

Question: With A18C U87C as the variant, how does the “polymerase ribozyme fitness (log ratio)” value read?
Answer: -2.11

Question: Which “polymerase ribozyme fitness (log ratio)” value does the source give for C49U U116G here?
Answer: -2.41

Question: Which “polymerase ribozyme fitness (log ratio)” value does the source give for C49A C73A C101G C115A G120A here?
Answer: -2.56

Question: For U9A G113A, which “polymerase ribozyme fitness (log ratio)” value is on record?
Answer: -0.103

Question: With G51U U109A G128U as the variant, how does the “polymerase ribozyme fitness (log ratio)” value read?
Answer: -5.92

Question: Which “polymerase ribozyme fitness (log ratio)” value does the source give for U30C A41G U78A A91G A108G here?
Answer: -2.61

Question: Which “polymerase ribozyme fitness (log ratio)” value does the source give for G93C C101U C104A here?
Answer: -1.95

Question: For C49G A121C, which “polymerase ribozyme fitness (log ratio)” value is on record?
Answer: 0.434

Question: For U14C A66U, which “polymerase ribozyme fitness (log ratio)” value is on record?
Answer: -3.21

Question: Which “polymerase ribozyme fitness (log ratio)” value does the source give for C34A G71C here?
Answer: -4.06

Question: Which “polymerase ribozyme fitness (log ratio)” value does the source give for C4A G39C A75G C114G G120A here?
Answer: -5.14

Question: For U21A G61A C88A G110A, which “polymerase ribozyme fitness (log ratio)” value is on record?
Answer: -4.74

Question: Which “polymerase ribozyme fitness (log ratio)” value does the source give for G17C U116G C124A here?
Answer: -2.05

Question: Which “polymerase ribozyme fitness (log ratio)” value does the source give for A29G G69A C86A U112A C123G here?
Answer: -3.48

Question: For A16U G42U U130C, which “polymerase ribozyme fitness (log ratio)” value is on record?
Answer: -3.77

Question: With C11U U78C C94U as the variant, how does the “polymerase ribozyme fitness (log ratio)” value read?
Answer: -1.61

Question: For G19U G135U, which “polymerase ribozyme fitness (log ratio)” value is on record?
Answer: -3.57

Question: Which “polymerase ribozyme fitness (log ratio)” value does the source give for C13U C85G C123U here?
Answer: 0.618

Question: For U78A U131C, which “polymerase ribozyme fitness (log ratio)” value is on record?
Answer: 0.382

Question: For C34G, which “polymerase ribozyme fitness (log ratio)” value is on record?
Answer: -6.09

Question: For C64U U92G, which “polymerase ribozyme fitness (log ratio)” value is on record?
Answer: -3.31

Question: Which “polymerase ribozyme fitness (log ratio)” value does the source give for A2G G44A here?
Answer: -0.766

Question: With C49G C124A as the variant, how does the “polymerase ribozyme fitness (log ratio)” value read?
Answer: 1.39

Question: Which “polymerase ribozyme fitness (log ratio)” value does the source give for G36C G44U A90C C102U here?
Answer: -5.65

Question: With C12U U21G C53U A68C C124A as the variant, how does the “polymerase ribozyme fitness (log ratio)” value read?
Answer: -6.61

Question: With U7C A27U G36C G57A A74U as the variant, how does the “polymerase ribozyme fitness (log ratio)” value read?
Answer: -4.85

Question: Which “polymerase ribozyme fitness (log ratio)” value does the source give for A29G C53A A90C C101U G113C here?
Answer: -2.81

Question: Which “polymerase ribozyme fitness (log ratio)” value does the source give for C80U A119G here?
Answer: 0.683

Question: For C22U U55G C123A, which “polymerase ribozyme fitness (log ratio)” value is on record?
Answer: -4.35

Question: Which “polymerase ribozyme fitness (log ratio)” value does the source give for G19A A121C here?
Answer: -1.3

Question: Which “polymerase ribozyme fitness (log ratio)” value does the source give for U59A A121C here?
Answer: 2.1

Question: For A26U C102A, which “polymerase ribozyme fitness (log ratio)” value is on record?
Answer: -5.29

Question: With G47A C62U G113U as the variant, how does the “polymerase ribozyme fitness (log ratio)” value read?
Answer: -4.52

Question: With C49G C72G G117A U125A as the variant, how does the “polymerase ribozyme fitness (log ratio)” value read?
Answer: -4.73

Question: Which “polymerase ribozyme fitness (log ratio)” value does the source give for G45C A50C A121C here?
Answer: 0.0664

Question: For C11G U78C A90C, which “polymerase ribozyme fitness (log ratio)” value is on record?
Answer: -0.723

Question: Which “polymerase ribozyme fitness (log ratio)” value does the source give for C64G A121U here?
Answer: -4.94

Question: Which “polymerase ribozyme fitness (log ratio)” value does the source give for C56U G120U C124A here?
Answer: 1.41

Question: Which “polymerase ribozyme fitness (log ratio)” value does the source give for U7G G36U C80U U92G C123U here?
Answer: -4.24

Question: With U21C C56A G69U C70U U96A A119G as the variant, how does the “polymerase ribozyme fitness (log ratio)” value read?
Answer: -2.46

Question: With A18U U67G C101G U116C as the variant, how does the “polymerase ribozyme fitness (log ratio)” value read?
Answer: -5.12

Question: With G122A G128U G135U as the variant, how does the “polymerase ribozyme fitness (log ratio)” value read?
Answer: -2.49

Question: Which “polymerase ribozyme fitness (log ratio)” value does the source give for G36U U54A C72A here?
Answer: -0.869

Question: For C15U C123G, which “polymerase ribozyme fitness (log ratio)” value is on record?
Answer: 0.228

Question: Which “polymerase ribozyme fitness (log ratio)” value does the source give for C64U U78C C104U here?
Answer: 0.13

Question: For C11G A37C, which “polymerase ribozyme fitness (log ratio)” value is on record?
Answer: -0.179

Question: With C40A C89G C101A U130G as the variant, how does the “polymerase ribozyme fitness (log ratio)” value read?
Answer: -5.66

Question: With G77C G110A A118C as the variant, how does the “polymerase ribozyme fitness (log ratio)” value read?
Answer: -1.65

Question: Which “polymerase ribozyme fitness (log ratio)” value does the source give for C13G G25A C56G A91G C99U G120U here?
Answer: -7.51

Question: For G52U G61A G110U, which “polymerase ribozyme fitness (log ratio)” value is on record?
Answer: -2

Question: Which “polymerase ribozyme fitness (log ratio)” value does the source give for C114U A121U here?
Answer: -1.32

Question: Which “polymerase ribozyme fitness (log ratio)” value does the source give for C8A G47A C49G C70A U78C here?
Answer: -3.7

Question: With C11G C12U C53U U54A C86U A90G U96A C101U as the variant, how does the “polymerase ribozyme fitness (log ratio)” value read?
Answer: -2.39

Question: For C70G G122A, which “polymerase ribozyme fitness (log ratio)” value is on record?
Answer: -3.06

Question: Which “polymerase ribozyme fitness (log ratio)” value does the source give for U59A A91G A100U G113A here?
Answer: -3.07

Question: For C8U G47U G69A U131G, which “polymerase ribozyme fitness (log ratio)” value is on record?
Answer: -5.7

Question: With C40U C70U as the variant, how does the “polymerase ribozyme fitness (log ratio)” value read?
Answer: -0.997

Question: With C12G A27G A68G as the variant, how does the “polymerase ribozyme fitness (log ratio)” value read?
Answer: -4.94

Question: With C79U C86U as the variant, how does the “polymerase ribozyme fitness (log ratio)” value read?
Answer: -0.175

Question: With C3G A5U G60C A90G as the variant, how does the “polymerase ribozyme fitness (log ratio)” value read?
Answer: -1.39

Question: With G10A A27C C56A G57A C72U U78G G93C as the variant, how does the “polymerase ribozyme fitness (log ratio)” value read?
Answer: -4.76

Question: With G17C C56G U96A as the variant, how does the “polymerase ribozyme fitness (log ratio)” value read?
Answer: -5.36

Question: Which “polymerase ribozyme fitness (log ratio)” value does the source give for U59G C101G C114U here?
Answer: -2.59

Question: For C72U C124A, which “polymerase ribozyme fitness (log ratio)” value is on record?
Answer: 1.54

Question: For C31G C72U A95C G113A, which “polymerase ribozyme fitness (log ratio)” value is on record?
Answer: -6.94

Question: Which “polymerase ribozyme fitness (log ratio)” value does the source give for U59A G71A C101U C124A here?
Answer: 1.02

Question: For G44C U81C U106A, which “polymerase ribozyme fitness (log ratio)” value is on record?
Answer: -0.434

Question: Which “polymerase ribozyme fitness (log ratio)” value does the source give for U14A A18U G60C here?
Answer: -4.66
